# Assay results published in US7202089B2, “Early diagnosis of stroke” (priority 2001, dated 2007).
# B1: ADIFAB2: acrylodan-derivatized rat intestinal fatty acid binding protein (I-FABP) with substitution of Ala for Leu at position 72 (protein, UniProt P02693 2-132, looked up, variant L72A)
# Fatty acid-binding protein, …: AFDGTWKVDRNENYEKFMEKMGINVVKRKLGAHDNLKLTITQEGNKFTVKESSNFRNIDVVFELGVDFAYSAADGTELTGTWTMEGNKLVGKFKRVDNGKELIAVREISGNELIQTYTYEGVEAKRIFKKE
# modifications: acrylodan label
# Test: Fatty acid binding of fluorescently labeled I-FABP probes (fluorescence ratio)
# Conditions: FFA binding; ADIFAB2 compared with ADIFAB
# Method: In a preferred embodiment, a fluorescently-labeled FABP is acrylodan-derived recombinant rat intestinal fatty acid binding protein (referred to as ADIFAB). Derivatization with acrylodan was performed using known methods substantially as previously described (U.S. Pat. No. 5,470,714 & Richieri, G. V, et al., J. Biol. Chem., (1992) […]: 23495–23501), and ADIFAB is commercially available (FFA Sciences LLC, San Diego, Calif. ). Concentrations of FFAu can be determined by the binding of the FFAu to the fluorescently labeled fatty acid binding protein (FABP). […] The concentration of FFAu can be determined from the fluorescence difference. […] It will be understood that those skilled in the art can readily substitute other fluorescently-labeled FABP in the disclosed assay.
# The assay for determination of FFAu levels in aqueous samples measures the intensity of a shift in fluorescence from a first wavelength, at which the derivatized FABP fluoresces when no FFA is bound, to a second wavelength, at which the derivatized FABP fluoresces when a molecule of FFA is bound, and the concentration of FFAu is then determined from the ratio (“R” value) of the two intensities of fluorescence wavelengths as described in U.S. Pat. No. 5,470,714 and Richieri, et al. (1995) J. Lipid Research, vol. […] Briefly, the ratio is calculated using the following formula: […]
molecule,measurement,value
B1,binding affinities relative to ADIFAB,about 10 fold
